The results in this text go back to patent US20040059519A1.

Several values for one entry are separate records, joined by “and”; a condition that tells them apart may be missing. Equal entries are not always repeated.

The target in test [1] is Neutravidin (deglycosylated avidin) (UniProt P02701). Nature of the test: single-analyte, Neutravidin bead 40/60 without peptide, flow cytometry. (A flow cytometer gives signals particle by particle.)
Test [2] has the same target. Nature of the test: single-analyte, Neutravidin bead 70/60 without peptide, flow cytometry.
In test [3] the target is Peptide 9 …-biotin. Briefly: single-analyte peptide bead, flow cytometry; MAB 384-Bodipy 15.5 ug/mL.
In test [4] the target is Peptide 3 …-biotin. Described as above.
The target in test [5] is Neutravidin (deglycosylated avidin) (UniProt P02701). Briefly: single-analyte, Neutravidin bead 70/70 without peptide, flow cytometry.
In test [6] the target is Peptide 8 …-biotin. Nature of the test: multiplex peptide beads, flow cytometry; no free biotin.
In test [7] the target is Peptide 1 …-biotin. The test is described as above.
Test [8] has as its target Peptide 7 …-biotin. The test is described as above.
The target in test [9] is Peptide 5 …-biotin (human). The test is described as above.
For test [10], the target named is Peptide 4 …-biotin. The description is as above.
The target in test [11] is Peptide 9 …-biotin. The test is described as above.
Test [12] has as its target Peptide 3 …-biotin. Described as above.
In test [13] the target is Peptide 6 …-biotin. The description is as above.
Test [14] deals with Peptide 2 …-biotin. The test is described as above.
Test [15] concerns the target Peptide 8 …-biotin. Nature of the test: multiplex peptide beads, flow cytometry; antibody pre-mixed with soluble HYGSLPQK 10 ug/mL (competitor m18).
Test [16] has as its target Peptide 1 …-biotin. The description is as above.
Test [17] has as its target Peptide 7 …-biotin. The description is as above.
Test [18] has as its target Peptide 5 …-biotin (human). The test is described as above.
Test [19] concerns the target Peptide 4 …-biotin. The test is described as above.
Test [20] deals with Peptide 9 …-biotin. The test is described as above.
For test [21], the target named is Peptide 3 …-biotin. Described as above.
For test [22], the target named is Peptide 6 …-biotin. The test is described as above.
The target of test [23] is Peptide 2 …-biotin. Described as above.
Test [24] deals with Human chorionic gonadotropin (human) (UniProt P01215). Nature of the test: MAB602 capture beads, flow cytometry; hCG 0.1 ng/mL, anti-AFP probe.
Chain of UniProt P01215 (P01215 25-116, chain 1 of 2, other chains not shown): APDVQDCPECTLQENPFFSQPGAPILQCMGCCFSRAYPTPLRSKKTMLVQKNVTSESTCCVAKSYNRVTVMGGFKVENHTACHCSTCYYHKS
The target of test [25] is Alpha fetoprotein (UniProt P02771). Briefly: multiplex sandwich, S10473 capture beads; AFP 2 ng/mL, washed.
Chain of UniProt P02771 (P02771 19-609 limits assumed): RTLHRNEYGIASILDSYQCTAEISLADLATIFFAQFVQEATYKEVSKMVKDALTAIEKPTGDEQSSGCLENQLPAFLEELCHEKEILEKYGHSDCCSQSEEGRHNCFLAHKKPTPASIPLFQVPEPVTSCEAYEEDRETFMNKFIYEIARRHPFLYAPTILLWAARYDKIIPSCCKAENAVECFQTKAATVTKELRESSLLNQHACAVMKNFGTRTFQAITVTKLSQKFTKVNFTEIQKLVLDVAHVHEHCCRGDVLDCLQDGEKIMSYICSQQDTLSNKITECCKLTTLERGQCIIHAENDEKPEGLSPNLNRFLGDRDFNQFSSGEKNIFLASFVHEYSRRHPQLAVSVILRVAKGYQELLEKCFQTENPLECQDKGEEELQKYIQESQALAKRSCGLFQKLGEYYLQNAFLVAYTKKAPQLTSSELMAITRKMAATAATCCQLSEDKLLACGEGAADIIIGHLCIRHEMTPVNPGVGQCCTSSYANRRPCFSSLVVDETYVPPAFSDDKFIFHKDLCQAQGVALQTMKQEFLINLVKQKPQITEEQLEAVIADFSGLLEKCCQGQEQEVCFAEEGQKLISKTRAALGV
In test [26] the target is Human chorionic gonadotropin (human) (UniProt P01215). Nature of the test: anti-AFP capture beads, flow cytometry; hCG 1.0 ng/mL, anti-AFP probe.
The target is the same in test [27]. Nature of the test: anti-AFP capture beads, flow cytometry; hCG 0.1 ng/mL, anti-AFP probe.
In test [28] the target is Alpha fetoprotein (UniProt P02771). Briefly: anti-AFP capture beads, flow cytometry; AFP 100.0 ng/mL, anti-AFP probe.
Test [29] has the same target. Briefly: multiplex no-wash sandwich, S10473 beads; serum Level 3, AFP 223 U/mL.
Test [30] has the same target. Nature of the test: multiplex sandwich, S10473 capture beads; AFP 250 ng/mL, no wash.
The target in test [31] is Human chorionic gonadotropin (human) (UniProt P01215). Nature of the test: MAB602 capture beads, flow cytometry; hCG 1.0 ng/mL, anti-hCG probe.
For test [32] the target is unchanged. Briefly: sandwich, MAB602 capture beads, flow cytometry; hCG 2000 ng/mL.
For test [33] the target is unchanged. Briefly: sandwich, MAB602 capture beads, flow cytometry; hCG 20000 ng/mL.
For test [34] the target is unchanged. Nature of the test: sandwich, MAB602 capture beads, flow cytometry; hCG 20 ng/mL.
For test [35] the target is unchanged. Briefly: MAB602 capture beads, flow cytometry; hCG 10.0 ng/mL, anti-hCG probe.
Test [36] shares this target. Briefly: sandwich, MAB602 capture beads, flow cytometry; hCG 0.0002 ng/mL.
Test [37] has the same target. Briefly: MAB602 capture beads, flow cytometry; hCG 100.0 ng/mL, anti-hCG probe.
For test [38] the target is unchanged. Briefly: multiplex sandwich, MAB602 capture beads; hCG 8 ng/mL, no wash.
Test [39] deals with Alpha fetoprotein (UniProt P02771). Nature of the test: anti-AFP capture beads, flow cytometry; AFP 10.0 ng/mL, anti-hCG probe.
For test [40], the target named is Human chorionic gonadotropin (human) (UniProt P01215). Nature of the test: bead sandwich, flow cytometry; capture A3 beads, hCG 20.0 ug/mL.
Test [41] shares this target. Briefly: multiplex sandwich, MAB602 capture beads; hCG 4 ng/mL, washed.
For test [42] the target is unchanged. Nature of the test: multiplex sandwich, MAB602 capture beads; hCG 125 ng/mL, no wash.
Test [43] concerns the target Alpha fetoprotein (UniProt P02771). Briefly: MAB602 capture beads, flow cytometry; AFP 0.1 ng/mL, anti-hCG probe.

Chain of UniProt P02701 (P02701 25-152 limits assumed): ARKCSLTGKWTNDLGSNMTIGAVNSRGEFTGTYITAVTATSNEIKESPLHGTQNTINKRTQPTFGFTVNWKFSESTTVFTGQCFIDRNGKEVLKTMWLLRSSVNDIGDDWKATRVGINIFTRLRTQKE

For the substance MAB 384, Bodipy FL-X labeled (antibody), the MIF of Fm in test [1] was 54; in test [2], 70; in test [3] it was 60; in test [4], 47; in test [5] it was 66; in test [15] it was 9. Moreover, the MIF of Fm in test [16] was 4; in [17], 11; in [18], 53; in test [19] it was 13; in test [20], 17; in test [21], 12. The MIF of Fm in test [22] stood at 15; in test [23] it was 7. Moreover, the MIF in test [6] worked out at 31; in test [7], 13; in test [8] it was 19; in test [9] it was 915; in test [10], 20; in test [11] it was 31. In addition, the results for the MIF in test [12], in test [13] and in test [14] were 20, 32 and 17, respectively.

As for “M20077 affinity purified polyclonal anti-AFP antibody, Bodipy FL-CASE labeled”, the MIF of Fm was determined as 49 in test [24]; 59 in [25]; 44 in test [26]; 49 in test [27]; 356 in test [28]; 956 in test [30]. Further, in [29], the MIF AVG was 1060. The MIF of FL1 in test [29] was 1110 and 994 and 1080.

Consider “AB633 affinity purified polyclonal anti-hCG antibody, Bodipy FL-CASE labeled”, for which the MIF of Fm in test [31] was 104; in test [32] it was 9290 and 9390; in [33], 9340 and 9220; in [34], 8500 and 8660; in [35], 530; in test [36], 122 and 149. Further, the MIF of Fm in [37] came to 761; in [38], 1760; in test [39] it was 44; in test [40] it was 3150; in test [41], 1300; in test [42] it was 2070. In test [43], this substance gave an MIF of Fm of 52.
